Laboratory results published in patent publication US20070014720A1 (published 2007).

T1: human CD20 (human, UniProt P11836 1-297)
T1 sequence (looked up): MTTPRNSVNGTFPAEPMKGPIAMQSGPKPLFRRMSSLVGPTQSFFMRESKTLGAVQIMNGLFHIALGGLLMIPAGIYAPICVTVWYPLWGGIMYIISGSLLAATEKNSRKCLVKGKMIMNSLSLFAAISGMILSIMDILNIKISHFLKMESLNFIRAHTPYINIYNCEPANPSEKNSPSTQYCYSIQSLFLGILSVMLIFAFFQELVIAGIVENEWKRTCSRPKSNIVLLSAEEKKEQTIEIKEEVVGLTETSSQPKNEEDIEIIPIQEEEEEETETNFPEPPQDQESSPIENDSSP


Assays:
[1] = target: T1, human CD20; test: cell-based or functional assay
[2] = target: T1, human CD20; test: FACS KD on SB cells expressing CD20 (GMF against mAb concentration, nonlinear fit)
Experimental: The affinity of purified antibodies against CD20 (mAbs 1.1.2, 1.2.1, 2.1.2, 1.3.3, 1.5.3, 1.10.3.1, 1.13.2), Rituximab (positive control), and B1 was determined by FACS. Briefly, SB cells expressing CD20 were resuspended in FACS buffer (2% FBS, 0.05% NaN₃) at a concentration of approximately 5 million cells/mL. HSB cells were also resuspended in FACS buffer at a concentration of approximately 9 million cells/mL. Cells were kept on ice. Purified antibodies were serially diluted in filtered 1×PBS (2×) across 11 wells in 96-well plates. The twelfth well in each row contained buffer only. 1×PBS and cells were added to each mAb well such that the final volume was […] and each well contained approximately 375,000 cells. The final molecular concentration ranges for the mAbs were as follows:
Plates were placed on a plate shaker for 3 hours at 4° C., then spun and washed 3× with PBS. 200 μL of 145 nM Cy5 goat α-human polyclonal antibody was added to each well, and 200 μL of 192 nM Cy5 goat α-mouse polyclonal antibody was added to the cells complexed with B1 antibody. Plates were then incubated for 40 minutes at 4° C., then spun and washed 3× with PBS.
The Geometric Mean Fluorescence (GMF) of 10,000 cells for each mAb concentration was determined using a FACSCalibur instrument. No significant nonspecific binding (no significant signal) was apparent from the HSB cells. In each row containing the SB cells, the signal from the twelfth well (containing buffer only) was subtracted from the signal from the first 11 wells. A nonlinear plot of GMF as a function of molecular mAb concentration was fit using Scientist software using the equation: […]

Binder	% Lysis Daudi 0.001 µg/ml ADCC [1] [%]	% Lysis Daudi 1 µg/ml ADCC [1] [%]	% Lysis Raji 0.001 µg/ml ADCC [1] [%]	% Lysis Raji 1 µg/ml ADCC [1] [%]	% Lysis Ramos 0.001 µg/ml ADCC [1] [%]	% Lysis Ramos 1 µg/ml ADCC [1] [%]	EC50 µg/ml Daudi CDC [1] [µg/mL]	EC50 µg/ml Raji CDC [1] [µg/mL]	EC50 µg/ml Ramos Apoptosis Alamar Blue [1] [µg/mL]	EC50 µg/ml Ramos Apoptosis Annexin V [1] [µg/mL]	EC50 µg/ml Ramos Apoptosis Cell Titer Glo [1] [µg/mL]	EC50 µg/ml Ramos Apoptosis WST-1 [1] [µg/mL]	EC50 µg/ml Ramos CDC [1] [µg/mL]	Kd [2] [nM]
mAb 1.12.3 (antibody, human IgG1, V domains shown) VH: EVQLVQSGAEVKKPGESLKISCKGSGYSFTSYWIGWVRQMSGKGLEWMGIIYPGDSDTRYSPSFQGQVTISADKSISTAYLQWSSLKASDTAIYYCARHPSYGSGSPNFDYWGQGTLVTVSS VL: DIVMTQTPLSSPVTLGQPASISCRSSQSLVYSDGNTYLSWLQQRPGQPPRLLFYKISNRFSGVPDRFSGSGAGTDFTLKISRVEAEDVGVYYCVQATQFPLTFGGGTKVEIK	17	63	3	10	2	29	9.39	1.31	0.026	0.191	0.0989	0.0383	2.07	
mAb 1.13.2 (antibody, human IgG1, V domains shown, Human IgG1 kappa; also called 1.13.1; 50-001H1_13_1) VH: EVQLVQSGAEVKKPGESLKISCKGSGYSFTNYWIGWVRQMPGKGLEWMGIIYPGDSDTRYSPSFQGQVTISADKSISTAYLQWSSLKASDTAMYYCARQGDYYHYSGMDVWGQGTTVTVSS VL: DVVMTQSPLSLSVTLGQPASISCRSSQSLVYNDGDTYLNWFQQRPGQSPRLLIYKVSNWDSGVPDRFSGSGSGTDFTLKVSRVEAEDVGVYYCMQGTHWPLTFGGGTKVEIK	24	74	5	21	4	33	~10	3.54	0.291	2.97	1.44	0.096	6.82	23.6
mAb 2.1.2 (ATCC Accession Number PTA-7328) (antibody, human IgG1, V domains shown, Human IgG1 kappa; also called 2.1.1; 50-001H2_1_1) VH: EVQLVQSGAEVKKPGESLKISCKGSGYSFTSYWIGWVRQMPGKGLEWMGIIYPGDSDTRYSPSFQGQVTISADKSISTAYLQWSSLKASDTAMYYCARQGDFWSGYGGMDVWGQGTTVTVSS VL: DIVMTQTPHSSPVTLGQPASISCRSSQSLVSRDGNTYLSWLQQRPGQPPRLLIYKISNRFSGVPNRFSGSGAGTDFTLKISRVKAEDVGVYYCMQATQFPLTFGQGTRLEIK	52	70	7	17	8	23	0.51	0.3	0.0329	0.163	0.0135	0.0067	0.16	3.8
mAb 2.2.2 (antibody, human IgG1, V domains shown) VH: EVQLVQSGAEVKKPGESLKISCKGSGYSFTSYWIGWVRQMPGKGLEWMGIIYPGDSDTKYSPSFQGQVTISADKSISTAYLQWSSLKASDTAMYYCARQGDFWSGNGGMDVWGQGTTVTVSS VL: DIVMTQTPLSSPVTLGQPASISCRSSQSLVSRDGNTYLSWLQQRPGQPPRLLIYKISNRFSGVPDRFSGSGAGTDFTLKISRVEVEDVGVYYCMQATQFPITFGQGTRLEIK	60	79	7	44	12	65	1.66	0.5	0.0207	0.373	0.139	0.00076	1.03	
mAb 1.1.2 (ATCC Accession Number PTA-7329) (antibody, human IgG1, V domains shown, also called 50-001H1_1_2) VH: EVQLVQSGAEVKKPGESLKISCKGSGYSFTSYWIGWVRQMPGKGLEWMGIIYPGDSDTRYRPSFQGQVTISADKSITTAYLQWSSLKASDTAMYYCARHPSYGSGSPNFDYWGQGTLVTVSS VL: not shown	77	96	12	53	15	84	0.8	0.4	0.0481	0.518	0.041	0.0055	0.24	11.1
